Measurements taken from patent US20210023177A1.

Experiments:
[1] = biological target: human Claudin 18 splice variant 2 (CLDN18.2) (human); assay: cell-based or functional assay
[2] = biological target: human Claudin 18 splice variant 2 (CLDN18.2) (human)

B1: IMAB362 (antibody, INN chains, looked up, V domains shown)
VH: QVQLQQPGAELVRPGASVKLSCKASGYTFTSYWINWVKQRPGQGLEWIGNIYPSDSYTNYNQKFKDKATLTVDKSSSTAYMQLSSPTSEDSAVYYCTRSWRGNSFDYWGQGTTLTVSS
VL: DIVMTQSPSSLTVTAGEKVTMSCKSSQSLLNSGNQKNYLTWYQQKPGQPPKLLIYWASTRESGVPDRFTGSGSGTDFTLTISSVQAEDLAVYYCQNDYSYPFTFGSGTKLEIKR
[1]
  ADCC EC50 (ng/ml), BxPC3 LVT cells: 47.7 ng/mL
  ADCC EC50 (ng/ml), CAPAN1-LVT cells: 65 ng/mL
  ADCC EC50 (ng/ml), DANG cells: 4980 ng/mL
  ADCC EC50 (ng/ml), DANG-LVT cells: 52.3 ng/mL
  ADCC EC50 (ng/ml), HPAC-LVT cells: 117 ng/mL
  ADCC EC50 (ng/ml), MiaPaCa2-LVT cells: 23.4 ng/mL
  ADCC EC50 (ng/ml), Panc05.04 cells: 5730 ng/mL
  ADCC EC50 (ng/ml), Patu8902-LVT cells: 49.2 ng/mL
  ADCC EC50 (ng/ml), Suit2-LVT cells: 73.2 ng/mL
  ADCC EC50 (ng/ml), YAPC-LVT cells: 29.5 ng/mL
  ADCC Max. lysis (%), BxPC3 LVT cells, human PBMC E:T 40:1: 90.6%
  ADCC Max. lysis (%), CAPAN1-LVT cells: 92.6%
  ADCC Max. lysis (%), DANG cells: 52.5%
  ADCC Max. lysis (%), DANG-LVT cells: 85.9%
  ADCC Max. lysis (%), HPAC-LVT cells: 76.2%
  ADCC Max. lysis (%), MiaPaCa2-LVT cells: 78.1%
  ADCC Max. lysis (%), Panc05.04 cells: 67.1%
  ADCC Max. lysis (%), Patu8902-LVT cells: 74.1%
  ADCC Max. lysis (%), Suit2-LVT cells: 81.2%
  ADCC Max. lysis (%), YAPC-LVT cells: 91.5%
  CDC EC50 (ng/ml), CAPAN1-LVT cells: 970 ng/mL
  CDC EC50 (ng/ml), MiaPaCa2-LVT cells: 340 ng/mL
  CDC EC50 (ng/ml), Patu8902-LVT cells: 291 ng/mL
  CDC EC50, gemcitabine pretreated MiaPaCa-2-LVT cells: 4.68 µg/mL
  CDC EC50, medium cultivated MiaPaCa-2-LVT cells: 7.67 µg/mL
  CDC Max. lysis (%), CAPAN1-LVT cells: 79.1%
  CDC Max. lysis (%), MiaPaCa2-LVT cells: 78.4%
  CDC Max. lysis (%), Patu8902-LVT cells: 76.7%
[2]
  CLDN18 surface expression (FACS), % of cells stained: 81.7%
